# Results published in patent publication US20260049143A1 (KYMAB, published 2026).
# T1: mouse ICOS-mFc (Chimerigen) (mouse, UniProt Q9WVS0 21-141, limits assumed)
# T1 construct: Bought fusion; also called mICOS; recombinant mouse ICOS protein; not shown: mouse Fc
# T1 sequence: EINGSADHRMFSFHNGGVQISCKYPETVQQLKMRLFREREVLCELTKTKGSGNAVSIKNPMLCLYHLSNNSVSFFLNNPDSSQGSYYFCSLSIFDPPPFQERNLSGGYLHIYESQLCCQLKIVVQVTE
# T2: human ICOS-mFc (Chimerigen) (human, UniProt Q9Y6W8 21-140, limits assumed)
# T2 construct: Bought fusion; also called hICOS; recombinant human ICOS protein; not shown: mouse Fc
# T2 sequence: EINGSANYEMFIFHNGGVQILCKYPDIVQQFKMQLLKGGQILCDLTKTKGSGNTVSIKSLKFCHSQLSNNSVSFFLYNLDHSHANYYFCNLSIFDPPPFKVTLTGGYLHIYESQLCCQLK
# T3: mouse ICOS expressed on CHO cells (mouse, UniProt Q9WVS0 21-141)
# T3 construct: the cell-expressed form may differ; also called mICOS; CHO mouse ICOS
# T3 sequence: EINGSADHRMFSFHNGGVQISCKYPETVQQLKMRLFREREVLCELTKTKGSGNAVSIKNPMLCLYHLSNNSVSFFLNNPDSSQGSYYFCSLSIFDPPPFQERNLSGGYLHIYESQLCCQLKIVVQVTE
# T4: Biotinylated human ICOS protein (human, UniProt Q9Y6W8 21-140, limits assumed, biotinylated)
# T4 sequence: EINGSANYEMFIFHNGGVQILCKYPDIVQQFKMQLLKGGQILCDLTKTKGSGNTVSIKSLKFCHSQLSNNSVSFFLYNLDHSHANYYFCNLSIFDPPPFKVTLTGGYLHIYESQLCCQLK
# Tests used:
# [1] = target: T1, mouse ICOS-mFc (Chimerigen); experiment: DELFIA ELISA, coated mouse ICOS-mFc, N=1
# Procedure: (§1) Recombinant ICOS proteins, human ICOS-mFc or mouse ICOS-mFc (Chimerigen) were diluted in 1×PBS and added to Black Hi-bind plates (Griener) at 1 μg/ml, 50 μl/well. Recombinant PD-L1 proteins, human PD-L1-Flag-His or mouse-His were diluted in 1×PBS and added to Black Hi-bind plates (Griener) at 4 μg/ml, 50 μl/well. The plates were left overnight at 4° C. The next day plates were washed 3× with 300 μl/well of 1×PBS+0.1% Tween and blocked with 200 μl/well of 1×PBS+1% BSA blocking buffer for 1 hr at RT on a plate shaker. Plates were washed 3× with 300 μl/well of 1×PBS+0.1% Tween.
# (§2) However, human-PD-L1 mAb² antibodies were diluted in 1×PBS+0.1% BSA buffer and diluted 1 in 2 from a starting working concentration of 0.066 μM over an 11 point titration. Titrated antibodies were added to the plates, 50 μl/well and left to incubate for 1 hr at R.T on a plate shaker. Plates were washed 3× with 300 μl/well of 1×PBS+0.1% Tween.
# (§3) DELFIA® Eu-labelled Anti-human IgG(Perkin-Elmer) was diluted 1:500 in DELFIA Assay buffer (Perkin-Elmer) and added to the assay plate (50 μl/well), left to incubate for 1 hr at RT on a plate shaker. […] After incubation, assay was read on Envision plate reader (Perkin Elmer), Time-resolved fluorescence (TRF) was measured at 615 nm.
# [2] = target: T2, human ICOS-mFc (Chimerigen); experiment: DELFIA ELISA, coated human ICOS-mFc, mean
# Procedure: as §1, §2, §3
# [3] = target: T3, mouse ICOS expressed on CHO cells; experiment: flow cytometry, CHO mouse ICOS cells, anti-human IgG AF647, N=1
# Procedure: (§4) CHO-S cells transfected with either human ICOS or mouse ICOS were resuspended in FACS buffer (PBS+1% w/v BSA+0.1% w/v sodium azide) and transferred to a 96-well V-bottom plate (Greiner) at a density of 1×10⁵ cells per well. mAb and mAb² were titrated in FACS buffer, 1 in 3 dilution across 11 points from a starting working concentration of 400 nM. Plates were centrifuged at 300×g for 3 minutes, supernatant discarded and 50 μL mAb or mAb² solution were added to cells and incubated at 4° C. for 1 hour. Cells were washed with 150 μL of PBS and centrifuged at 300×g for 3 minutes, supernatant was discarded and cell pellet resuspended in 150 μL PBS added. This wash step was repeated twice. […] Cells were incubated for 1 hour at 4° C. in the dark. Cells were washed with 150 μL of PBS and centrifuged at 300 g for 3 minutes, supernatant was discarded and cell pellet resuspended in 150 μL PBS added. This wash step was repeated twice. Cells were fixed with 25 μL 4% v/v paraformaldehyde, incubated for 20 minutes at 4° C., cells were pelleted by centrifugation at 300×g and the supernatant discarded. Cells were washed with 150 μL of PBS and centrifuged at 300 g for 3 minutes, supernatant was discarded and cell pellet resuspended in 150 μL PBS added. This wash step was repeated. Pelleted cells were resuspended in 110 μL 1×PBS.
# [4] = target: T3, mouse ICOS expressed on CHO cells; experiment: flow cytometry, CHO mouse ICOS cells, anti-human IgG AF647, N=3
# Procedure: as §4
# [5] = target: T3, mouse ICOS expressed on CHO cells; experiment: flow cytometry, CHO mouse ICOS cells, anti-human IgG AF647, mean
# Procedure: as §4
# [6] = target: T2, human ICOS-mFc (Chimerigen); experiment: HTRF neutralisation of human B7-H2 binding to human ICOS-mFc, n3
# Procedure: (§5) 5 μl of human ICOS-mFc (Chimerigen) at 20 nM (5 nM final) or 5 μl of mouse ICOS-mFc (Chimerigen) at 4 nM (1 nM final) were added to relevant assay wells. Plate was incubated for 1 hour (hr) at room temperature (RT).
# (§6) After incubation, assay was read on Envision plate reader (Perkin Elmer) using a standard HTRF protocol. 620 nm and 665 nm channel values were exported to Microsoft Excel and % Delta-F and % Neutralisation calculations performed. Titration curves and IC50 values [M] were plotted using Graphpad (Prism). IC50 values were calculated by first transforming the data using equation X=Log(X). The transformed data was then fitted using nonlinear regression, using fitting algorithm, log (inhibitor) vs. response-variable slope (four parameters).
# [7] = target: T1, mouse ICOS-mFc (Chimerigen); experiment: HTRF neutralisation of mouse B7-H2 binding to mouse ICOS-mFc, n1
# Procedure: as §5, §6
# [8] = target: T2, human ICOS-mFc (Chimerigen); experiment: HTRF neutralisation of human B7-H2 binding to human ICOS-mFc, average
# Procedure: as §5, §6
# [9] = target: T4, Biotinylated human ICOS protein; experiment: avidity SPR (ProteOn), biotinylated hICOS on NLC chip; calculated on-rate
# Procedure: Biotinylated human ICOS protein diluted at 7.5 μg/mL in running buffer (1×HBS-EP+Buffer Technova, cat. No. H8022) was captured on a NLC sensor chip (Bio-Rad, cat No 1765021). The surface was then blocked using biocytin (Sigma Aldrich, cat No B1758) at 1 mg/mL.
# The assay was carried out at 25° C.
# The buffer injection (i.e. 0 nM) was used to double reference the sensorgrams. The analysis was carried out using the equilibrium model inherent to the ProteOn's analysis software for each mAb² construct.
Binder,EC50 [1],EC50 [2],EC50 [3],EC50 [4],EC50 [5],IC50 [6],IC50 [7],IC50 [8],kon [9]
"STIM003_457 (bispecific antibody, V domains shown, not shown: a dimerising Fc or GST, mAb^2 IgG1; also called ST1M003_457; STIM003_457 mAb^2) VH: EVQLVESGGGVVRPGGSLRLSCVASGVTFDDYGMSWVRQAPGKGLEWVSGINWNGGDTDYSDSVKGRFTISRDNAKNSLYLQMNSLRAEDTALYYCARDFYGSGSYYHVPFDYWGQGILVTVSS VL: EIVLTQSPGTLSLSPGERATLSCRASQSVSRSYLAWYQQKRGQAPRLLIYGASSRATGIPDRFSGDGSGTDFTLSISRLEPEDFAVYYCHQYDMSPFTFGPGTKVDIK",0.327 nM,0.43 nM,8.92 nM,11.9 nM,10.6 nM,0.77 nM,0.087 nM,0.56 nM,275000 M⁻¹ s⁻¹
"STIM001_457 (bispecific antibody, V domains shown, not shown: a dimerising Fc or GST, mAb^2 IgG1; also called STIM001_457 mAb^2) VH: QVQVVQSGAEVKKPGASVKVSCKASGYTFSTFGITWVRQAPGQGLEWMGWISAYNGDTNYAQNLQGRVIMTTDTSTSTAYMELRSLRSDDTAVYYCARSSGHYYYYGMDVWGQGTTVTVSS VL: DIVMTQSPLSLPVTPGEPASISCRSSQSLLHSNEYNYLDWYLQKPGQSPQLLIFLGSNRASGVPDRFSGSGSGTDFTLKITRVEAEDVGIYYCMQSLQTPLTFGGGTKVEIK",23.6 nM,12.6 nM,5.14 nM,6.97 nM,5.21 nM,2.38 nM,3.39 nM,1.6 nM,37600 M⁻¹ s⁻¹
